# Measurements from paper PMC9304055, “Biochemical analysis of novel NAA10 variants suggests distinct pathogenic mechanisms involving impaired protein N-terminal acetylation” (Human Genetics, 2022).
# T1: NAA10 A6P-V5 (human, UniProt P41227-1 1-235, A6P)
# T1 construct: NAA10, human, patient variant c.16G>C p.(A6P), made by site-directed mutagenesis of pcDNA3.1/NAA10-WT-V5; Same construct as m1 with the variant found in a patient; also called NAA10 p.(A6P); c.16G>C p.(Ala6Pro); source: HeLa, transfected, in lysate
# T1 sequence (looked up): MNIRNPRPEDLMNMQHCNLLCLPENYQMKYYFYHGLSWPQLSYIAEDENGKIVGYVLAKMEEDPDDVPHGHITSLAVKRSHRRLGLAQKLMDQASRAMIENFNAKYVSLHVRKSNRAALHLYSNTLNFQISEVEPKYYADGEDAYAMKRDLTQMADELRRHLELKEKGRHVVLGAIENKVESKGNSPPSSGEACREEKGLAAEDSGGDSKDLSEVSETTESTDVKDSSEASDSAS
# Target: T1, NAA10 A6P-V5
# Assay: co-IP; anti-V5 immunoprecipitation (Dynabeads Protein G) of NAA10-V5 from lysates of transfected HeLa cells; lysis buffer 50 mM Tris-HCl pH 8.0, 150 mM NaCl, 5 mM EDTA, 0.5% NP-40, 4 °C; co-precipitated NAA15 detected by Western blot
# Conditions: partners not purified
binder,measurement,value
"NAA15 (natural protein, human (endogenous in HeLa), UniProt Q9BXJ9 1-866, looked up, NAA15, large auxiliary subunit of the NatA complex, endogenous in HeLa cells, detected with NAA15 rabbit polyclonal antibody (previously called anti-NATH); also called auxiliary subunit of NatA; NATH; source: endogenous, HeLa lysate) MPAVSLPPKENALFKRILRCYEHKQYRNGLKFCKQILSNPKFAEHGETLAMKGLTLNCLGKKEEAYELVRRGLRNDLKSHVCWHVYGLLQRSDKKYDEAIKCYRNALKWDKDNLQILRDLSLLQIQMRDLEGYRETRYQLLQLRPAQRASWIGYAIAYHLLEDYEMAAKILEEFRKTQQTSPDKVDYEYSELLLYQNQVLREAGLYREALEHLCTYEKQICDKLAVEETKGELLLQLCRLEDAADVYRGLQERNPENWAYYKGLEKALKPANMLERLKIYEEAWTKYPRGLVPRRLPLNFLSGEKFKECLDKFLRMNFSKGCPPVFNTLRSLYKDKEKVAIIEELVVGYETSLKSCRLFNPNDDGKEEPPTTLLWVQYYLAQHYDKIGQPSIALEYINTAIESTPTLIELFLVKAKIYKHAGNIKEAARWMDEAQALDTADRFINSKCAKYMLKANLIKEAEEMCSKFTREGTSAVENLNEMQCMWFQTECAQAYKAMNKFGEALKKCHEIERHFIEITDDQFDFHTYCMRKITLRSYVDLLKLEDVLRQHPFYFKAARIAIEIYLKLHDNPLTDENKEHEADTANMSDKELKKLRNKQRRAQKKAQIEEEKKNAEKEKQQRNQKKKKDDDDEEIGGPKEELIPEKLAKVETPLEEAIKFLTPLKNLVKNKIETHLFAFEIYFRKEKFLLMLQSVKRAFAIDSSHPWLHECMIRLFNTAVCESKDLSDTVRTVLKQEMNRLFGATNPKNFNETFLKRNSDSLPHRLSAAKMVYYLDPSSQKRAIELATTLDESLTNRNLQTCMEVLEALYDGSLGDCKEAAEIYRANCHKLFPYALAFMPPGYEEDMKITVNGDSSAEAEELANEI",fold less NAA15 co-immunoprecipitated than with NAA10 WT-V5,5 fold
